The text below walks through data of the RNAGym collection of RNA variant scans (doi:10.7554/elife.80360).

B1: CPEB3 Ribozyme (parent)
chain: GGGGGCCACAGCAGAAGCGUUCACGUCGCGGCCCCUGUCAGAUUCUGGUGAAUCUGCGAAUUCUGCUGU

The variants in the data set derive from B1. Description: self-cleavage, relative activity (ratio to wild type); higher = more cleavage; co-transcriptional.
Take C24U C57G: the self-cleavage amounted to 0.24.

As to C24U C57U, the self-cleavage came to 0.244.

G25C A51C: the self-cleavage was 0.227.

For G25C A51G, the self-cleavage stood at 0.203.

As for C24U G56U, the self-cleavage stood at 0.528.

For C24U G56C, the self-cleavage is 0.307.

C24U G56A: the self-cleavage was 0.61.

For G25C A60G, the self-cleavage came out at 0.207.

As for G25C A60C, the self-cleavage was determined as 0.149.

Regarding C24G U44A, the self-cleavage was 0.514.

Turning to C24G U44C, the self-cleavage stood at 0.348.

Take C24U U38A: the self-cleavage was found to be 0.418.

In the case of C24U U38C, the self-cleavage came out at 0.582.

In the case of C24U G47A, the self-cleavage was found to be 0.869.

Consider C24U G47U, for which the self-cleavage was 0.909.

G25A C33G: the self-cleavage worked out at 0.206.

In the case of G25A C33U, the self-cleavage came out at 0.276.

Regarding G25A C33A, the self-cleavage is 0.206.

G25C C33U: the self-cleavage worked out at 0.258.

As for G25C C33A, the self-cleavage is 0.307.

For G25C U62G, the self-cleavage is 0.153.

With G25C U62C, the self-cleavage amounted to 0.158.

As to G25C U62A, the self-cleavage was determined as 0.132.

Regarding C24G G47U, the self-cleavage was determined as 0.508.

C24G G47A: the self-cleavage stood at 0.491.

Take G25A U61G: the self-cleavage came to 0.219.

Consider G25A U61C, for which the self-cleavage is 0.247.

As for G25A G28C, the self-cleavage worked out at 0.131.

On to G25C A59U, for which the self-cleavage was determined as 0.176.

For G25C A59C, the self-cleavage turned out to be 0.193.

For G25C A59G, the self-cleavage came to 0.169.

In the case of C24G G58C, the self-cleavage amounted to 0.248.

C24G G58A: the self-cleavage turned out to be 0.247.

As for G25A G37A, the self-cleavage was 0.187.

Regarding G25A G37U, the self-cleavage came out at 0.199.

Consider G25A G37C, for which the self-cleavage is 0.119.

C24G G30C: the self-cleavage is 0.128.

Regarding C24G G30U, the self-cleavage was 0.173.

With C24G G30A, the self-cleavage came out at 0.308.

As for C24U U36G, the self-cleavage came out at 0.182.

Regarding C24G G37A, the self-cleavage was found to be 0.131.

Turning to C24G G37C, the self-cleavage was determined as 0.219.

In the case of G25C C27G, the self-cleavage was 0.225.

As to G25C C27U, the self-cleavage was determined as 0.172.

For G25C U36G, the self-cleavage was 0.217.

Consider G25C C34G, for which the self-cleavage amounted to 0.14.

On to G25C C34A, for which the self-cleavage turned out to be 0.197.

Take G25A A42C: the self-cleavage came out at 0.161.

Regarding G25A A42G, the self-cleavage came out at 0.203.

As for G25A A42U, the self-cleavage stood at 0.178.

On to G25A, for which the self-cleavage is 0.202.

As for G25C, the self-cleavage came to 0.17.

C24G U26C: the self-cleavage is 0.386.

As to G25C G30A, the self-cleavage is 0.25.

On to G25C G30U, for which the self-cleavage came to 0.193.

Take G25C G30C: the self-cleavage was determined as 0.171.

G25C G56A: the self-cleavage was determined as 0.143.

Take C24U C66G: the self-cleavage is 0.346.

Take C24U C66U: the self-cleavage was determined as 0.734.

Take C24U C66A: the self-cleavage was found to be 0.331.

For G25C U46A, the self-cleavage was 0.18.

On to G25C U46G, for which the self-cleavage amounted to 0.192.

Take G25A G30A: the self-cleavage was determined as 0.155.

Regarding G25A G30C, the self-cleavage amounted to 0.219.

Regarding G25C U43G, the self-cleavage amounted to 0.188.

Turning to G25C U43C, the self-cleavage was 0.164.

As for C24U U44C, the self-cleavage was 0.633.

As to C24U U44G, the self-cleavage amounted to 0.703.

With C24U U44A, the self-cleavage is 0.687.

On to G25C A42C, for which the self-cleavage came out at 0.187.

In the case of G25C A42G, the self-cleavage worked out at 0.194.

Regarding G25C A42U, the self-cleavage was 0.203.

As for C24U C45G, the self-cleavage is 0.776.

For the variant C24U C45A, the self-cleavage amounted to 0.743.

Regarding G25C C63U, the self-cleavage is 0.136.

Turning to C24U C35U, the self-cleavage amounted to 0.579.

Take G25A C54A: the self-cleavage turned out to be 0.203.

For G25A C54G, the self-cleavage turned out to be 0.208.

Turning to G25A U49G, the self-cleavage amounted to 0.207.

Regarding G25A U49C, the self-cleavage was 0.219.

With G25C C29U, the self-cleavage was determined as 0.126.

On to G25C C29G, for which the self-cleavage came out at 0.148.

For G25C A52G, the self-cleavage stood at 0.174.

Turning to G25C A52U, the self-cleavage turned out to be 0.158.

Take G25C A52C: the self-cleavage turned out to be 0.182.

For the variant C24G U61G, the self-cleavage was 0.306.

Regarding C24G U61C, the self-cleavage was found to be 0.284.

For the variant C24G U61A, the self-cleavage was determined as 0.173.

Take G25A C57U: the self-cleavage was found to be 0.205.

Consider G25A C57A, for which the self-cleavage worked out at 0.223.

G25C U49G: the self-cleavage was found to be 0.11.

Consider G25C U49A, for which the self-cleavage was 0.14.

Take G25C G58C: the self-cleavage came out at 0.234.

C24G U53C: the self-cleavage came out at 0.235.

With C24G U53A, the self-cleavage was determined as 0.339.

For the variant C24G U53G, the self-cleavage turned out to be 0.177.

With G25A A52U, the self-cleavage worked out at 0.213.

G25A A52C: the self-cleavage was 0.253.

Take G25A A52G: the self-cleavage is 0.193.

In the case of G25A C45A, the self-cleavage is 0.208.

C24G U64C: the self-cleavage turned out to be 0.315.

As to C24G U64G, the self-cleavage worked out at 0.338.

For C24G C35U, the self-cleavage came out at 0.261.

For C24U, the self-cleavage is 0.844.

As to G25C G50U, the self-cleavage was 0.216.

G25C G50A: the self-cleavage worked out at 0.186.

In the case of G25A C29U, the self-cleavage was 0.163.

G25A C29A: the self-cleavage was 0.181.

With G25A C29G, the self-cleavage stood at 0.216.

On to C24U A40U, for which the self-cleavage is 0.317.

With C24U A40G, the self-cleavage stood at 0.738.

Take C24U G25C: the self-cleavage came out at 0.105.

In the case of C24U G25A, the self-cleavage stood at 0.212.

For the variant G25A A51G, the self-cleavage amounted to 0.22.

Take G25A A51U: the self-cleavage is 0.166.

As to G25A U43A, the self-cleavage came to 0.154.

As for G25A U43C, the self-cleavage was 0.288.

Regarding G25A U43G, the self-cleavage stood at 0.119.

Consider G25A U69C, for which the self-cleavage was 0.36.

On to G25A U69A, for which the self-cleavage stood at 0.295.

As to G25A G58U, the self-cleavage was found to be 0.218.

Take G25A G58A: the self-cleavage was determined as 0.22.

For the variant G25A G58C, the self-cleavage came out at 0.159.

With G25A C35U, the self-cleavage is 0.152.

Consider G25A C35G, for which the self-cleavage amounted to 0.18.

Take G25A C63U: the self-cleavage is 0.166.

As for C24G G31A, the self-cleavage is 0.185.

Turning to C24G G31C, the self-cleavage is 0.134.

Consider G25C U38G, for which the self-cleavage stood at 0.187.

Regarding G25C U38A, the self-cleavage worked out at 0.176.

As to G25C U38C, the self-cleavage stood at 0.166.

Regarding C24U A59C, the self-cleavage is 0.281.

On to C24U A59G, for which the self-cleavage is 0.866.

With C24G U49C, the self-cleavage turned out to be 0.523.

As for G25C C54A, the self-cleavage amounted to 0.136.

For the variant G25C C54G, the self-cleavage turned out to be 0.162.

G25C C54U: the self-cleavage was found to be 0.133.

In the case of G25C C57A, the self-cleavage stood at 0.14.

Turning to C24G C57G, the self-cleavage is 0.13.

C24G C57A: the self-cleavage came to 0.172.

Take C24G C57U: the self-cleavage was 0.241.

Take G25A G31A: the self-cleavage stood at 0.219.

As for G25A G31C, the self-cleavage amounted to 0.147.

Turning to G25A G31U, the self-cleavage amounted to 0.197.

On to G25C U55A, for which the self-cleavage was 0.107.

On to G25C U55C, for which the self-cleavage was determined as 0.107.

G25C U55G: the self-cleavage was 0.174.

Consider C24U C29A, for which the self-cleavage was determined as 0.292.

As to C24U C29U, the self-cleavage is 0.143.

On to C24U C29G, for which the self-cleavage was determined as 0.246.

G25A A59C: the self-cleavage came out at 0.157.

Consider G25A A59U, for which the self-cleavage stood at 0.17.

Consider G25A A59G, for which the self-cleavage was found to be 0.208.

C24U U62C: the self-cleavage stood at 0.505.

Regarding C24U U62A, the self-cleavage is 0.441.

With G25A U67G, the self-cleavage was determined as 0.266.

As to G25A U67C, the self-cleavage turned out to be 0.133.

Regarding G25A G68A, the self-cleavage stood at 0.222.

In the case of G25A G68C, the self-cleavage is 0.195.

In the case of G25A G68U, the self-cleavage stood at 0.224.

In the case of G25A G47A, the self-cleavage is 0.175.

Consider G25C G47U, for which the self-cleavage was 0.213.

Take G25C G47A: the self-cleavage came out at 0.102.

For G25C G47C, the self-cleavage was 0.142.

On to C24U G48A, for which the self-cleavage came out at 0.815.

With C24U G48U, the self-cleavage is 0.889.

With C24U G48C, the self-cleavage was found to be 0.86.
